Results taken from article doi:10.1101/2020.09.10.291138.

Target: human IgM-Fc (heavy chain constant domains Cμ2, Cμ3, Cμ4 and the tailpiece) (human)
Assay: cryo-EM structure

human IgM-Fc (heavy chain constant domains Cμ2, Cμ3, Cμ4 and the tailpiece) (domain or fragment)
stoichiometry N: 5
